In the RNAGym collection of RNA variant scans (doi:10.7554/elife.90254) one finds self-cleavage data, which are given here for 167 variants.

The labels stand for the following.
B1: LINE1-full (parent)
chain: UACGUAGGUGGUUUUCCCCUGAUAGUGCUAAGGGGGCCUGGAAGUUUGGACUGGGCAGAGCUCAACACAGCGUGGCAAAGUGGCUGUGGCUAGACUGCCUCUCUGGAUUCCUCGUCACUCAGCAGGGCAUCUCUGAGAGAAAUGCC

The variants in the data set derive from B1. The data set can be described thus: self-cleavage, relative activity (ratio to wild type); higher = more cleavage; in vitro, sequencing; the parent is a self-cleaving ribozyme.
Consider A24C G49A, for which the self-cleavage worked out at 0.82. With U26C G72C, the self-cleavage was determined as 0. In the case of U26A C90A, the self-cleavage worked out at 0.04. On to G25C A140G, for which the self-cleavage is 2.41. Turning to G25A A65C, the self-cleavage turned out to be 0.02. Next, G25U U39A: 0.31; A24U A117G: 0.54; A24U A121U: 0.55. A24U U91C: the self-cleavage came to 0.45. Consider A24G C116U, for which the self-cleavage was 0.65. Take U26C A77U: the self-cleavage was 1.55. With U26A A67G, the self-cleavage was 0.4.

For A24G A92U, the self-cleavage stood at 1.34. Turning to A24G U46G, the self-cleavage is 1.28. As for A24G U46C, the self-cleavage worked out at 1.74.

On to G25U A30G, for which the self-cleavage turned out to be 1.27.

With A24U U115A, the self-cleavage amounted to 1.54. For A24U U115C the value was 1.92; for A24G U73A, 1.2; for A24G U73C, 1.68. For A24G G126A the value was 1.09; for A24G U45G, 0; for A24G U45C, 1.12. With U26A U29A, the self-cleavage came to 1.12.

Consider U26A U29C, for which the self-cleavage worked out at 1.44.

Consider U26C G93A, for which the self-cleavage is 0.03. Regarding U26C G93C, the self-cleavage was determined as 0.17. Turning to A24G A77C, the self-cleavage is 2.04.

As for A24G A77G, the self-cleavage was 1.41. Turning to U26C U62G, the self-cleavage was 0.07.

Consider U26C U62A, for which the self-cleavage amounted to 0.02.

For the variant A24G A57U, the self-cleavage is 0.27.

In the case of A24G A57G, the self-cleavage was determined as 1.14. For U26A U47G the value was 1.6; for U26A U47C, 1; for U26A U47A, 0.59.

U26C C61A: the self-cleavage is 0.06. For the variant U26C C61U, the self-cleavage came to 0.04. Turning to A24U A129G, the self-cleavage is 0.75.

For the variant U26C C95A, the self-cleavage was found to be 0.1.

For U26C G34A, the self-cleavage was found to be 1.03. Consider A24U A31U, for which the self-cleavage is 1.09. As to A24U U39C, the self-cleavage stood at 1.47. Regarding U26C C133U, the self-cleavage was 0.98. For the variant A24C A140G, the self-cleavage was determined as 1.15. Take G25U A78G: the self-cleavage was found to be 0.96.

Regarding U26A U102G, the self-cleavage was found to be 0.38. For U26A U102A, the self-cleavage came out at 1.01.

With A24U U85C, the self-cleavage is 0.15. As for U26C, the self-cleavage stood at 1.24. With U26A, the self-cleavage was determined as 0.94.

On to U26A U119G, for which the self-cleavage worked out at 1.45. For U26A U119A the value was 0.78; for A24G C120U, 1.29; for A24U U62C, 0.08.

Consider A24G U143C, for which the self-cleavage stood at 1.12. Take U26A U73A: the self-cleavage was 1.24. With U26A U73G, the self-cleavage was found to be 1.18. With U26A U73C, the self-cleavage was 1.15. In the case of U26A U134C, the self-cleavage worked out at 0.9.

In the case of A24G C123U, the self-cleavage was found to be 0.71.

For the variant U26C A124G, the self-cleavage was determined as 0.64. Next, A24U G49A: 1.39; A24U C123U: 1.02. As for U26A A117G, the self-cleavage came out at 1.11.

Regarding U26C C98U, the self-cleavage is 0.11.

Consider A24G U100C, for which the self-cleavage was 1.32. For the variant A24G U39A, the self-cleavage was 0.77. Next, G25A A69G: 0.41; A24C C51U: 1.37. Consider A24C U73C, for which the self-cleavage worked out at 1.84. Turning to U26A G34U, the self-cleavage was determined as 0.83. As for G25U A140G, the self-cleavage was 0.7. In the case of U26A A43G, the self-cleavage was 0.97.

As to U26A A43U, the self-cleavage turned out to be 0.89.

As to A24G U29A, the self-cleavage was 1.3. For A24U U81C, the self-cleavage amounted to 1.24. Consider A24G U62A, for which the self-cleavage was determined as 0.07. For the variant A24G U62C, the self-cleavage was 0.14. Consider U26A A78U, for which the self-cleavage was found to be 1.61.

With U26A A78G, the self-cleavage was 0.74. Turning to A24U G86U, the self-cleavage was 0.13. On to U26C A64G, for which the self-cleavage turned out to be 0.39.

A24U A140G: the self-cleavage was determined as 1.75.

In the case of A24U C37G, the self-cleavage was 0.82. Consider U26C G35A, for which the self-cleavage is 1.26. In the case of A24G C128A, the self-cleavage stood at 0.65. As to G25C U104A, the self-cleavage came to 1.91. Consider G25A U62C, for which the self-cleavage turned out to be 0.11. Take A24U U143C: the self-cleavage is 1.63. Regarding U26A A142G, the self-cleavage came to 1.2. A24G A65C: the self-cleavage amounted to 0.16. Consider G25C U115A, for which the self-cleavage stood at 1.02.

In the case of U26C A67U, the self-cleavage turned out to be 0.06. Take A24G U115C: the self-cleavage was 1.46. In the case of A24G U115A, the self-cleavage amounted to 1.45. With A24G G53U, the self-cleavage stood at 1.03. Regarding U26A G80U, the self-cleavage came to 1.21. Next, U26C C101A: 0.85; A24G G93A: 0.13; U26C G127A: 1.37. With A24U A124G, the self-cleavage was determined as 1.06. For the variant G25U U46C, the self-cleavage amounted to 1.74. Take G25A A142G: the self-cleavage is 1.35. Turning to U26A U104A, the self-cleavage was found to be 0.98. Consider U26C A42G, for which the self-cleavage is 1.06. U26C C37U: the self-cleavage worked out at 0.77. As for G25A A140G, the self-cleavage was 1.49. For G25A U81C, the self-cleavage was 1.91.

In the case of A24C U91A, the self-cleavage worked out at 0.57. In the case of U26A C110A, the self-cleavage stood at 0.95. For the variant A24C G114A, the self-cleavage is 0.68. On to U26A U52A, for which the self-cleavage was found to be 0.81. In the case of A24U C51U, the self-cleavage came out at 0.84.

Regarding U26A G126C, the self-cleavage worked out at 1.42. For the variant U26C G58U, the self-cleavage is 0.04. G25A C38U: the self-cleavage amounted to 0.64. With A24G A42G, the self-cleavage came out at 1.11. For G25A C76U, the self-cleavage came out at 1.35. As for U26C A142G, the self-cleavage was determined as 1.43.

As to A24G U47C, the self-cleavage turned out to be 1.05.

Take G25U U45G: the self-cleavage is 0.93. For the variant U26C U47A, the self-cleavage is 1.16. For U26C A136U the value was 1.82; for U26A A30G, 0.84; for G25A A77G, 0.92. Next, A24G G139A: 1.3; A24G G139U: 2.56; A24U A67U: 0.1. As to A24U G80C, the self-cleavage is 1.41. Take A24G G97A: the self-cleavage was found to be 0.17. For the variant A24U A42G, the self-cleavage was determined as 1.54. Consider A24C A121G, for which the self-cleavage was found to be 2.59. For U26A U100C the value was 1.07.

Take U26A U100G: the self-cleavage is 1.31.

Take U26A U132A: the self-cleavage is 1.34.

Regarding A24G U108A, the self-cleavage is 1.49. A24G U108C: the self-cleavage worked out at 1.68. With A24C U109A, the self-cleavage amounted to 2.55. For U26C G114U, the self-cleavage worked out at 1.49.

For the variant U26A A140G, the self-cleavage is 1.02. Regarding U26A A31C, the self-cleavage worked out at 1.04. With U26A A31G, the self-cleavage stood at 0.81. With A24U A64G, the self-cleavage is 0.23. With A24U A64U, the self-cleavage was found to be 0.35. As for U26A U115C, the self-cleavage amounted to 1.29.

For the variant A24G A142G, the self-cleavage came out at 1.1. As to A24C A65U, the self-cleavage was 0.

For A24G U87C, the self-cleavage is 0.19. For U26A U96G the value was 0.03; for A24G A31G, 0.72.

Turning to A24G U130C, the self-cleavage was found to be 1.47. Consider U26C A92U, for which the self-cleavage worked out at 0.81. On to U26A G105U, for which the self-cleavage was determined as 0.57. Next, U26C G89A: 0.03; U26C A57G: 1.14.

Regarding U26C A57U, the self-cleavage turned out to be 0.14. Take A24G G25U: the self-cleavage was determined as 1.14.

As for A24U U119A, the self-cleavage was 1.09. For A24G U112A, the self-cleavage came to 1.51. As to A24G U112C, the self-cleavage worked out at 1.41. Next, U26A G40U: 0.37. Next, A24G G86A: 0.12; U26A G33U: 0.62. U26A G33A: the self-cleavage is 0.67.

U26C A117U: the self-cleavage is 2.25. For U26C A117G, the self-cleavage was found to be 1.51.
